Our source for the stoichiometry N values is PMC3613427.

Assay [1] deals with formate channel FocA from Vibrio cholerae (Vibrio cholerae). Briefly: SEC-MALS. On the technique in general: SEC sorts molecules by how far they enter the pores of the column.
Assay [2] shares this target. The assay is described as follows: crystal structure.

As usually defined, the stoichiometry N is the number of molecules, sites or subunits per partner or assembly. As to “formate channel FocA from Vibrio cholerae (natural protein)”, the stoichiometry N in assay [1] and in assay [2] was 5 in each case.
